The text below walks through data of US20230242621A1 (VIR BIOTECHNOLOGY, published 2023).

This assay deals with T1, HBsAg (hepatitis B surface antigen; genotype or subtype not stated in the example) (hepatitis B virus).
T1 chain: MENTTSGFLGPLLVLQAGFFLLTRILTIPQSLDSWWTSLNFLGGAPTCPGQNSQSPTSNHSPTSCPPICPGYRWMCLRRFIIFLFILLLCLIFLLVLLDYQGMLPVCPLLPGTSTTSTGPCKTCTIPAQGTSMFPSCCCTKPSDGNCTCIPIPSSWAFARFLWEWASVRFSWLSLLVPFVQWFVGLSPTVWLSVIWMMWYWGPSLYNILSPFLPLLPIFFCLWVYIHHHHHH
Put plainly: ELISA on HBsAg; IgG1 with wild-type Fc.

B1: HBC34-v36 (IgG1 with wild-type Fc, allotype G1m17, 1) (antibody, V domains shown)
VH: ELQLVESGGGWVQPGGSQRLSCAASGRIFRSFYMSWVRQAPGKGLEWVATINQDGSEKLYVDSVKGRFTISRDNAKNSLFLQMNNLRVEDTAVYYCAAWSGNSGGMDVWGQGTTVSVSS
VL: SYELTQPPSVSVSPGQTVSIPCSGDKLGNKNVAWFQHKPGQSPVLVIYQDSKRPSGIPERFSGSNSGNTATLTISGTQAMDEAAYFCQTFDSTTVVFGGGTRLTVLG
notes: also called L-CDR2 GL
Usually EC50 stands for the midpoint of the concentration-response curve. High values mean a less potent agent, low ones a more potent agent. B1 showed an EC50 of 0.7 ng/mL.
